The values below come from the DeepSol protein solubility set.

This data set in a line: soluble on expression in E. coli; label from the status in PepcDB or PDB records.
For the sequence “MGRKVKPLASMKKHLTNDERDQRKDAEKALFDYPSLDLTPPDWLHDRALTEWQRVAPYLKANTPISELDRAMLASYCRAYATVQTCENDIRKNGLVQTNQKSGVRKPNPYVALQSQAMKDVKALANDLGMSLSSRARMELNKQKDETPEDTFEAMLS”, the “soluble on expression in E. coli” value was “not soluble”. On to “MGSCCSCLNRDSVPDNHPTKFKVTNVDDEGVELGSGVMELTQSELVLHLHRREAVRWPYLCLRRYGYDSNLFSFESGRRCQTGQGIFAFKCSRAEEIFNLLQDLMQCNSINVMEEPVIITRNSHPAELDLPRAPQPPNALGYTVSSFSNGCPGEGPRFSAPRRLSTSSLRHPSLGEESTHALIAPDEQSHTYVNTPASEDDHRRGRHCLQPLPEGQAPFLPQARGPDQRDPQVFLQPGQVKFVLGPTPARRHMVKCQGLCPSLHDPPHHNNNNEAPSECPAQPKCTYENVTGGLWRGAGWRLSPEEPGWNGLAHRRAALLHYENLPPLPPVWESQAQQLGGEAGDDGDSRDGLTPSSNGFPDGEEDETPLQKPTSTRAAIRSHGSFPVPLTRRRGSPRVFNFDFRRPGPEPPRQLNYIQVELKGWGGDRPKGPQNPSSPQAPMPTTHPARSSDSYAVIDLKKTVAMSNLQRALPRDDGTARKTRHNSTDLPL”, for which the “soluble on expression in E. coli” value is reported as “soluble”. Under “MGSDKIHHHHHHAAEGNDKKQDLIVKTTQAVPVSHQGDKEFSFIARPFRTSELSFRVGGPIDRFDVYAGNRYQQGSIIAEIDPRDFRIRKERAEAIYHQAKAEFERIQKLYGKGNVSASTYEKAKADYITAKTTFNTASYELEDTHLIAPFNGYVGEVYIEKFQDVKATQPIISFIDIDQLKLEIYVTQDIARAVQALDTIQVRFDAQPDKVYNAKIMEISKGTTRNNLSYLLTALLPNKEGKLLAGMSGKASLNAPSVSTLSQGAAIPQTALCHRPTEGDYLWVVNSKTQQVTKRKVKKGDLLPNGYVSITEGLYPDETVANSGLRFLSDGMKISVENE” stands “not soluble”; under “MGSDKIHHHHHHAAIPISVTKGPDGIKIHCLNSANNPLLGSPAYKNVRIVELEKVPFFQRINNIRKLEMNDDYLFVQTSEKLYTYTLNGELMAEIGRKGEREDDYSELSTFYIDNKKKQITIIDGVQNKLINYNFWGNYMFTDTISEGAFKWCYQTLLINNNQLLNYHGMSMDNTEPYSLFDLTKKEVIKRYFSYQPITLGNYVYPFSWHPMTRADKDIDVIMPLCDTVYTYSAASSSFQPKYIIEMTQKMAPKNKIRKNTPSYSGDLLKLDQQGYFTGFDGIYETDTKILLQYMYGITLGYFLFDKYTKTGSFYLYSQNDKGKTFPFNVIVHSYKNEFVAFGKGKELRSLTHIKDKKVREKIESLGDNSACLIFYELE”, “not soluble”; under “MGSDKIHHHHHHAAYGEDNHKKERHPDDRKINVGIRGGFNSSMFLVSDLKIKDVTIDEIQNNYKIGYFGALFMRLNMKRHFIQPEISYNISRCEISFDKLGSQHPDIEPDYASVSSTIHSIDFPLLYGYHVVKQGPYTMSLFAGPKLRYLWNKKNKITFENFDQQGIHEKLYPFNVSAVIGVSVNISRIFFDFRYEQGLHNLSKSVTYDNIDMEGRPEVSNITFRRRDNVLSFSLGVIF”, “not soluble”. Under “MGSDKIHHHHHHADIETCTVPGDVLNRDPIIGNDQITLPLKKGTNISKLAPEFTLTPGATINPESGVVRDFSTPQKYVVTSEDGKWKKEYEVTALFSGIPTSYHFENALPVKDKKGNILYYNFQESDAIGNILNWANANEGFNYTGVQAKPEEYPTSPAPDGVQGNCVKLTTKDTGSLGALLKMYIAAGNLFMGSFTLDIGNVLRATKFGVPFTHIPTSFKGYYKYKAGEVFTVKGEPVSGRKDICDIYAVFYETDDKVKSLDGTNVFTSPNLISIARISNAKETEQWTEFNLPFITLPGKTVDSQKLEDGKYNVAIVFSSSIKGDLFEGAAGSTLYIDEVELSYRDIK” stands “not soluble”; under “MGSDKIHHHHHHADVIVPEQPVPVVAVPAFSWAGFYLGGQVGNFSSKTALSYLGDEKTGKWTPVKKEFVPKLSGFVGGIYAGSNFDINNGFIIGIDTDVMWSGKKNTKIITWPEVPPEVSSEKKVERVSVGTNQDTSAEVTNGALSHTLKQKWFGATRVKVGFVVDRMMPYIAGGVAYTQLQNIFEKEADKTKKAIDISNVIHDEKKTMVGYTLGGGIDFAMTDNVIVRAEYRYSDYGKKKFADEKIEMRYKTNDFRVGVAYKF”, “not soluble”. Then “MGSDKIHHHHHHAGCETEGEDIDMRFETCTVSFVQQELRSSYEVYFNGEKSINRSTSVKKNSTLKLEVYKIGEKQPELSQEITLDNSKDIELLKLVGRDIAISSSLEEYTTFTPIISYFNPNTDLYTVTFNNGELSNKVKNYIAEADLSGTLKIVRNVDGQVLYEQDMTIMPEGQFSLMQLSDTDFLDISDGEEADPESRQYTKIRFFYTADAFPGHDKLKLVVYLMDLDAMQFTAPIATIDLEAGKISEYIQIDNDAFGQGVVNGVYDLIDESGNMIVNNLEHFNTSIPIGTSDNKFMTFRFMDPSHQGGDNVQCNFILSTPWK”, with “not soluble”; and “MGSDKIHHHHHHAKIRAKNADSYPFMYKNYPFLRPWVDSLNQAHALRDTFVLNPEGIRLHAYYIAAPQPTKKTAVIVHGYTDNAIRMFMIGYLYNHDLQYNVLLPDLQHQGESGGPAIQMGWKDRLDVMQWMHIANQIYGDSTQMVVHGISMGGATTMMVSGEAQPYFVKCFVEDCGYTSVWDEFSHELKSSFHLPSFPLMNTTSWLCQKKYGWNFEEASSLNQVKKSHLPMFFIHGDKDTYVPTWMVYPLYEAKSAPKQLWIVPGAAHAVSYKENKEEYTRKVKEFTDRYIH”, with “not soluble”. Turning to “MGSDKIHHHHHHAMSSCGSTKEAASLSSLNGEWNIIEVNGSAIVPAENQELPFIGFDTATGKVYGNSGCNRMMGSIDLNSKPGTIDMSRLGSTRMACPDMTTEQNVLNALGQVKSYKKLGKHNMALCNASNRPVVVLQKKASDVKLSALNGEWKIEEVNGEAIPSGMEKQPFINFDVRKKSIHGNAGCNLINGGFETDKENPRSISFPNVISTMMACPDMEVEGKVMKAINEVKSFDVLSGGGIGFYSADGTLVMVLVKK”, the “soluble on expression in E. coli” value is “not soluble”. Under “MGSDKIHHHHHHANAAKKDDAKFKPAADRDGPRWRTGIEGQRIADLGDGRFLNPVLSGDYPDPSVLKDGDDYYMTHSSFDSAPGLLIWHSRDLVNWRPLGPALAKPLGTVFAVDIAKHDGRYFIYIPFMKAPWSTDLPSFANTFVIHAPSMEGPWSDPIDLKVGGLIDPGHVVGEDGHRYLFFNDGKRVRLTADGLATDGPVETAYQAWRYPDDWITEAYSPEGPKLFRRGDYFYLVNAVGGTSGPATGHMIVAARSRSIHGPWENCPHNPIQRTHSRQEMWWSRGHATCVEGPGGQWYMVYHGYENGYHTLGRQTLVEPIEWTPDGWFRATGGDLSEPLRKPRGPAQPHGMAHSDSFHTDRLGTLWNLYGSAPAETARIAIGDGALTLKAKGKGPSDGVVLTQQVGDRSYEVSVELELTDKTSGGLLLFFDDRLFLGMGIDGHRMTTWRGGKASYWPEPAPPARRIFMRITNQEQVVTFYYSLDGKNWTRHGVRSEVTGYNANTVDNLLSLRPALYAAGEGEVLFRNFTYRALA” stands “not soluble”; under “MGSDKIHHHHHHAQDDANCNSNSSISHEAVKAGNFKDAYTPWKAVLENCPTLRFYTFTDGYKILKGLLGQIKDRNSAEYKKYFDELMNTHDLRMKYTQEFLGKGVKVSSEDEALGIKAVDYIAFAPKVDVNQAYDWLKKSVDAAKAESAAATLFYFLQMSHDKLKEDPAHKEQFIQDYLAASEYADDAIAAADKESVKKAFGGIKDNLVALFINSGTADCESLQGIYGPKVETNQTDLNYLKKVISIMKMMKCTDSDAYQQASFYVYKIEPSAEAATGCAYQAYKKGDIDGSVKFFDEAINLETDNAKKAEKAYAAASVLTTAKKLSQARSYAQKAISFNENYGAPYILIANLYAMSPNWSDESALNKCTYFAVIDKLQKAKSVDPSVTEEVNKMISRYSAYTPQAKDLFMLGYKAGDRITIGGWIGESTTIR”, “not soluble”. Turning to “MGSDKIHHHHHHAQDKPQEEGFVFTTVKENPITSIKNQNRSSTCWSFSSLGFLESELLRTGKGEYDLSEMFVVHHTMVDRAVNYVRYHGDSSFSPGGSFYDIMFCMKNYGLVPQDAMPGIMYGDSLPVHNELDATAGAYVNAIAKGNLKKLTPVWKKGLCAIYDTYLGQCPEKFTYKGKEYTPMTFAQSLGLNPDDYVSLTSYTHHPFYSQFAIEIQDNWRNGLSYNLPLDEFMAVMDNAVKNGYTFAWGSDVSEEGFTRDGIAVVPDAAKGAELTGSDMARWTGMTAADKRKELTSKPLPEMKITQEMRQTAFDNWETTDDHGMIIYGIAKDQNGKEYFMVKNSWGTNNKYKGTWYASKAFVAYKTMNILVHKDALPKDIAKKLGIK”, the “soluble on expression in E. coli” value is “not soluble”. For the sequence “MGSDKIHHHHHHAQDNPFKPEWFVSGGINGVTALNGSANNILGGKVSGGVWLNKIIGLRVDAEAGNVWLKGGYNAVTVGAGADILVNLMKNYTDEDRKFRLNAIFGLGYNYYSFGDDYPRLSKTNTMSGNFSLQAAFRLNSHLSIFAEPGIKISTKFYDIENKDDVFAGGMMTVGVIYKF”, the “soluble on expression in E. coli” value is “not soluble”.

On to “MGSDKIHHHHHHAQQRTEYNRKGDEAMKRLDYSDAKMWYEEGVSQCDAYSIDQLTTIWLSNERMRPSMRSLMNKCLNCLTVKATEDDPDAISKLIIYYSEGIGTPKSEELATYWKEYQEILLKPAEPAAQPIDSAAVSPKKRMEFFAGYSYSIESPYGITVGGMGQRFGWYVRFKTNMSFMNYTDECNNQGQIIKFSNSEGESYELNTGKSSKTNSIAGTAGLIVKCFPWLYASVGLGYGERALLHSFTTHSYENYDSTREVWCRNIDSSYKGVAAEVDLMMKITNSVFISVGCNTVNFKYLDLNAGLGVFF”, for which the “soluble on expression in E. coli” value is on record as “not soluble”. Under “MGSDKIHHHHHHAQTPQDSVRFIGYLPVRHTDPTKWITRYQSEIDRYQTENQMLKDTSCDVLFLGSSSINLWDNIYRDMAPLKILRRSYGGAALRDMLYNYDVIARGYHPRSIVIYVENDLAGTPEDLTVGETFDFFRLLTNRLQRDYPDIPIFILSYKPSLARKEMIPKHEIINALLQEYASKRGGLTYIDVASCLYDNNGKLRKDIFKQDGLHMNQNGYDLWTAILKPKILESIR” stands “not soluble”; under “MGSDKIHHHHHHARLNAFKQLTPGSDVRDWIAAAGQVGGLGAADLNFPDHFAVYDADQMGNFLGEAALTLNGIAMRYYTDPGFKLGAFTHPDAAVRQAALDVTKQGIDTCARMGGKTVTLWMGQDGFDYAFQMDYGLAWDRTVAAIADICAHDPNIDIAIEYKPNEPRAFALMPDIGTTLLACREVGAVNLGVTLDFAHVLYADEMPAHSAALIGRHSRMIGLHLNDGYGKRDDGLMVGSVHAIQTVELLVAMLRMGQTDVIYFDTFPDMGGLNPIEEARTNVAVTDRLMAVAESLMEDPALAQAIDRQDAAASHRIVARALYGS”, “not soluble”. Take “MGSDKIHHHHHHASCNKFDDLNTNPDAATKVTAPMLATKLILNITQQGSAKNFVYHSMLSKQIAWSENASDEQYNLFGRTDFDGYTILTNCQKMVDAANEGDKDSYAALAKFMKAYKLFYKSLEVGDIPYSDALKGEEGVQKPKYDTQKEVMRQVLEDLEEAYTLFSSGSDFDGDPIFGGDTENWKKTVVAFELKVLTHLCKKDTDADLKVKERFARLVSSGSLMTSNADNFQLVYSNKAGQLYPFYYTQNKHSDYLMMSSVIIDNLKKFNDYRMFYYASPAKAQTDKGIKDSEWDAYLSIDPSDSYSNISVLYGKGEFCLANLRYTRVPEGEPLMRLSYAEQNFILAEGAVRGWISEDASTYYKKGIEASMNFIADNTPDKEEYTHGRTITQEYIQEYLAQPVIQLSGDKEKDLEMILLQRYLASFLQHPYDAYYDYRRTGYPVLPINPSTNLNTEKNKIPTRWMYPEAEFSYNPDNANEAVQRQYNGSDDVNKLMWILQ”: the “soluble on expression in E. coli” value was “not soluble”.
